Test results as given in US20220184172.

Experiments:
[1] = system: recombinant Caspase-6 (Origene, Cat. TP760261)
[2] = system: purified caspase-6-myc expressed in HEK293T cells
[3] = system: T1, recombinant Bid (R&D Systems, Cat. 846-BD-50)
T1 sequence: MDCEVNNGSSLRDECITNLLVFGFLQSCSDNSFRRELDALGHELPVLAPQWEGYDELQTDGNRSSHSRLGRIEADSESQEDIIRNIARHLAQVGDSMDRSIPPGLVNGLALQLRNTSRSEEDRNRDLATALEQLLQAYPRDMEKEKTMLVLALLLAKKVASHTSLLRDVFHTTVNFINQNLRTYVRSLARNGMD

[4] = system: purified Bax-HA expressed in HEK293T cells
[5] = system: purified Bid-HA expressed in HEK293T cells

Sequence of recombinant AMPKα1β1γ1 active kinase (Q13131 whole entry): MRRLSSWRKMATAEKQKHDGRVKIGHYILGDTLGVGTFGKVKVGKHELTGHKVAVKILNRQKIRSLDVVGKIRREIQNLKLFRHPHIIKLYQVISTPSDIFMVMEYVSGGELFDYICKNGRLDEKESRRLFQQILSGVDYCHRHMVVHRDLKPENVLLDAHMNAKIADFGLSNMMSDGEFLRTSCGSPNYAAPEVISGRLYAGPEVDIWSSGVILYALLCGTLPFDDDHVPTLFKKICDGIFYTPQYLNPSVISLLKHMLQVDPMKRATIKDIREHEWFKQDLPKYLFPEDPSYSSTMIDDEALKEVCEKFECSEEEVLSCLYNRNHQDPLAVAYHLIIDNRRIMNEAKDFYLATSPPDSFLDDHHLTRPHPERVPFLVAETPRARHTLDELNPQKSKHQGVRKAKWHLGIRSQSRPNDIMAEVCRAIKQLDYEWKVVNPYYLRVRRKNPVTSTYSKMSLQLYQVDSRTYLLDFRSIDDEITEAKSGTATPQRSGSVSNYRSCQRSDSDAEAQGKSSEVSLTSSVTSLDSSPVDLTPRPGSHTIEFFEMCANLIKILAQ
Sequence of recombinant AMPKα1β1γ1 active kinase (Q9Y478 2-270, further chain): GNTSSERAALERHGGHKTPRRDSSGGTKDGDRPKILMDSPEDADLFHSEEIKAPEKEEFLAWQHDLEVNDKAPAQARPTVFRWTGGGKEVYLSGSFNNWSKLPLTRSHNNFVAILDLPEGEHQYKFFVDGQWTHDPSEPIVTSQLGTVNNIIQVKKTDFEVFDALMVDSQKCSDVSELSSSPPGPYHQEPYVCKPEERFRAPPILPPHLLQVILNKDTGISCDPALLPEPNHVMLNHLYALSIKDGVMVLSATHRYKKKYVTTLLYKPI
Sequence of recombinant AMPKα1β1γ1 active kinase (P54619 whole entry, further chain): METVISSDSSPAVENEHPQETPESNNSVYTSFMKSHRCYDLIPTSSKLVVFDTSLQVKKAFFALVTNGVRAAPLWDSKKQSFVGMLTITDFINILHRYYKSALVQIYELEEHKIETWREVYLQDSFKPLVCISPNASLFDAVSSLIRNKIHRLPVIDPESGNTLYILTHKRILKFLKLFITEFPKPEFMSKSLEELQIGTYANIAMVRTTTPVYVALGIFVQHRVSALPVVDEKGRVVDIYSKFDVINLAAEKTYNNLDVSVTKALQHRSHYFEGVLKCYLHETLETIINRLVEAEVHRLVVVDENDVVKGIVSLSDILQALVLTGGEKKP
Sequence of recombinant AMPKα2β1γ1 active kinase (P54646 whole entry): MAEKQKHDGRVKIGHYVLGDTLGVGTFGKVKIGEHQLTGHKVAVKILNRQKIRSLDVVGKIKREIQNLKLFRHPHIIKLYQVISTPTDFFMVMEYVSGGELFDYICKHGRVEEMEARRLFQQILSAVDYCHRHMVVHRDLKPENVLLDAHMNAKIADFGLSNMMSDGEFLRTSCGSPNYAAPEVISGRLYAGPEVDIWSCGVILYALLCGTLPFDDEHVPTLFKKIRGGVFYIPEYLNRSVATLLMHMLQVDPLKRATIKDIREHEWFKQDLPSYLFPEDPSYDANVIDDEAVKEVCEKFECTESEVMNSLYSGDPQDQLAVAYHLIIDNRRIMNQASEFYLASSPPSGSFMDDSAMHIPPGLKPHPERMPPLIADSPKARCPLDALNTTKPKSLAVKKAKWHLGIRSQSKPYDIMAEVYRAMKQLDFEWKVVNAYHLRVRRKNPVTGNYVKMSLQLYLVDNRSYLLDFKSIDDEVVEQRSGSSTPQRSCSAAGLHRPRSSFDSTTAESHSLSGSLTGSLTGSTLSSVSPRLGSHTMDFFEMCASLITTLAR
Sequence of recombinant AMPKα2β1γ1 active kinase (Q9Y478 2-270, further chain): as the sequence (Q9Y478 2-270, further chain) above
Sequence of recombinant AMPKα2β1γ1 active kinase (P54619 whole entry, further chain): as the sequence (P54619 whole entry, further chain) above

## active caspase-8
[1]
  in vitro cleavage assay: procaspase-6 was directly cleaved by caspase-3 and -7, but not caspase-8 or -9

## recombinant AMPKα2β1γ1 active kinase
[1]
  in vitro kinase assay, phosphorylation of Ser257: Both recombinant AMPKα1 and AMPKα2 directly phosphorylated procaspase-6 at Ser^257 in vitro

## active caspase-9
[1]
  in vitro cleavage assay: procaspase-6 was directly cleaved by caspase-3 and -7, but not caspase-8 or -9

## recombinant AMPKα1β1γ1 active kinase
[2]
  in vitro kinase assay, phosphorylation of Ser257 (FIG. 15C): Both recombinant AMPKα1 and AMPKα2 directly phosphorylated procaspase-6 at Ser^257 in vitro
[1]
  in vitro kinase assay, phosphorylation of Ser257: Both recombinant AMPKα1 and AMPKα2 directly phosphorylated procaspase-6 at Ser^257 in vitro

## active caspase-3
[1]
  in vitro cleavage assay: procaspase-6 was directly cleaved by caspase-3 and -7, but not caspase-8 or -9

## active caspase-6
[3]
  in vitro cleavage assay: Active caspase-6 cleaves Bid to generate two cleaved peptide fragments
[4]
  in vitro cleavage assay: active caspase-6 cleaved purified Bcl2 family protein Bid (BH3 interacting-domain death agonist), but not Bax (Bcl2 associated X) in vitro
[5]
  in vitro cleavage assay: active caspase-6 cleaved purified Bcl2 family protein Bid (BH3 interacting-domain death agonist), but not Bax (Bcl2 associated X) in vitro

## active caspase-7
[1]
  in vitro cleavage assay: procaspase-6 was directly cleaved by caspase-3 and -7, but not caspase-8 or -9
